Drawing on the Immune Epitope Database (IEDB), this text covers Kd and IC50 for eight sequences.

For test [1], the target named is HLA-B*83:01. Kind of test: IEDB peptide-MHC binding, purified MHC/competitive/fluorescence; filed as Kd, often an IC50 or EC50 that approximates it; ≥ and ≤ were set here for values at or beyond the usual limits of such assays. The conditions noted are these: source organism: Bacillus anthracis str. A0488.
The target in test [2] is HLA-A*32:15. The test is described as above. The conditions noted are these: source organism: Bacillus anthracis str. A0488.
Test [3] has as its target HLA-B*45:06. The test is described as above. The conditions noted are these: source organism: Bacillus anthracis str. A0488.
For test [4], the target named is HLA-C*14:02. The test is described as above. The conditions noted are these: source organism: Bacillus anthracis str. A0488.
The target of test [5] is HLA-B*15:42. The description is as above. The conditions noted are these: source organism: Bacillus anthracis str. A0488.
Test [6] addresses HLA-A*02:01. Kind of test: IEDB peptide-MHC binding, purified MHC/direct/fluorescence; filed as Kd, often an IC50 or EC50 that approximates it; ≥ and ≤ were set here for values at or beyond the usual limits of such assays.
For test [7], the target named is HLA-B*57:01. The test is described as above.
Test [8] addresses HLA-B*15:01. The description is as above.
The target in test [9] is HLA-B*39:01. The description is as above.
Test [10] addresses HLA-B*27:03. The description is as above.
For test [11], the target named is HLA-B*46:01. Described as above.
Test [12] deals with HLA-B*18:01. Described as above. The conditions noted are these: source organism: Bacillus anthracis str. Sterne.
Test [13] addresses HLA-A*26:01. The description is as above.
Test [14] concerns the target HLA-A*24:02. The test can be described thus: IEDB peptide-MHC binding, purified MHC/competitive/fluorescence; filed as Kd, often an IC50 or EC50 that approximates it; ≥ and ≤ were set here for values at or beyond the usual limits of such assays.
In test [15] the target is HLA-A*24:02. Kind of test: IEDB peptide-MHC binding, purified MHC/competitive/fluorescence; ≥ and ≤ were set here for values at or beyond the usual limits of such assays. The conditions noted are these: source organism: West Nile virus.
Test [16] deals with HLA-A*02:50. Kind of test: IEDB peptide-MHC binding, purified MHC/competitive/fluorescence; filed as Kd, often an IC50 or EC50 that approximates it; ≥ and ≤ were set here for values at or beyond the usual limits of such assays.
Test [17] addresses HLA-A*03:01. Kind of test: IEDB peptide-MHC binding, purified MHC/direct/fluorescence; filed as Kd, often an IC50 or EC50 that approximates it; ≥ and ≤ were set here for values at or beyond the usual limits of such assays.
Test [18] deals with HLA-B*08:01. The test is described as above. As to conditions: source organism: Salmonella enterica subsp. enterica serovar Typhimurium str. LT2.
Test [19] concerns the target HLA-B*40:01. Described as above. The conditions noted are these: source organism: Salmonella enterica.
Test [20] deals with HLA-A*02:06. Described as above.
In test [21] the target is HLA-B*07:02. The test is described as above. The conditions noted are these: source organism: Salmonella enterica.
Test [22] addresses HLA-A*02:12. The test is described as above.
Test [23] concerns the target HLA-A*02:19. The test is described as above.
The target in test [24] is HLA-A*02:11. Described as above.
Test [25] deals with HLA-B*58:01. The test is described as above. The conditions noted are these: source organism: Salmonella enterica.
The target of test [26] is HLA-A*02:16. The test is described as above.
The target of test [27] is HLA-B*44:02. Described as above. As to conditions: source organism: Salmonella enterica.
The target in test [28] is HLA-B*27:05. The description is as above.
Test [29] concerns the target HLA-B*15:02. The test can be described thus: IEDB peptide-MHC binding, purified MHC/competitive/fluorescence; filed as Kd, often an IC50 or EC50 that approximates it; ≥ and ≤ were set here for values at or beyond the usual limits of such assays. The conditions noted are these: source organism: Vibrio cholerae 2740-80.
The target in test [30] is HLA-B*73:01. The test can be described thus: IEDB peptide-MHC binding, purified MHC/direct/fluorescence; filed as Kd, often an IC50 or EC50 that approximates it; ≥ and ≤ were set here for values at or beyond the usual limits of such assays. The conditions noted are these: source organism: Giardia lamblia ATCC 50803.
Test [31] concerns the target HLA-B*48:01. The description is as above. As to conditions: source organism: Giardia lamblia ATCC 50803.
For test [32], the target named is HLA-B*51:01. Described as above. As to conditions: source organism: Entamoeba histolytica HM-1:IMSS.
The target in test [33] is HLA-A*24:03. The test is described as above. As to conditions: source organism: Entamoeba histolytica HM-1:IMSS.
In test [34] the target is HLA-A*29:02. The description is as above. As to conditions: source organism: Entamoeba histolytica HM-1:IMSS.
Test [35] deals with HLA-B*15:17. The description is as above. The conditions noted are these: source organism: Entamoeba histolytica HM-1:IMSS.
Test [36] addresses HLA-A*69:01. Described as above. As to conditions: source organism: Entamoeba histolytica HM-1:IMSS.
The target of test [37] is HLA-A*02:01. Kind of test: IEDB peptide-MHC binding, purified MHC/competitive/fluorescence; filed as Kd, often an IC50 or EC50 that approximates it; ≥ and ≤ were set here for values at or beyond the usual limits of such assays. As to conditions: source organism: Encephalitozoon cuniculi GB-M1.
The target of test [38] is HLA-A*02:06. The test is described as above. As to conditions: source organism: Encephalitozoon cuniculi GB-M1.
Test [39] deals with HLA-A*02:12. Described as above. The conditions noted are these: source organism: Encephalitozoon cuniculi GB-M1.
Test [40] deals with HLA-A*02:19. Described as above. As to conditions: source organism: Encephalitozoon cuniculi GB-M1.
For test [41], the target named is HLA-A*69:01. Described as above. As to conditions: source organism: Encephalitozoon cuniculi GB-M1.
Test [42] concerns the target HLA-A*02:11. The description is as above. The conditions noted are these: source organism: Encephalitozoon cuniculi GB-M1.
Test [43] addresses HLA-A*02:03. The test is described as above. As to conditions: source organism: Encephalitozoon cuniculi GB-M1.
Test [44] deals with HLA-A*02:16. Described as above. The conditions noted are these: source organism: Encephalitozoon cuniculi GB-M1.
Setting [45] is: source organism: Bacillus anthracis str. Sterne.
Setting [46] is: source organism: Salmonella enterica.
[47] abbreviates: source organism: Salmonella enterica subsp. enterica serovar Typhimurium str. LT2.
[48] abbreviates: source organism: Entamoeba histolytica HM-1:IMSS.

Where only a bound is given, the exact number is not on record here.

The term Kd denotes the constant that tells how readily two partners part at equilibrium. Higher therefore signals lower affinity. In the case of TTYVYTLPV, the Kd in test [1] is ≥ 5000 nM; in test [2], 370 nM; in test [3], ≥ 5000 nM; in test [4], 3.5 nM; in test [5] it was ≥ 5000 nM; in [6] (setting [45]), 90 nM. Moreover, the Kd in test [7] (setting [45]), in test [8] (setting [45]), in test [9] (setting [45]), in test [10] (setting [45]), in test [11] (setting [45]) and in test [12] was ≥ 20000 nM in each case. In addition, the Kd in test [13] (setting [45]) is ≥ 20000 nM.
A word on the IC50: it is the concentration needed to halve the response being measured. Higher therefore signals weaker potency in that assay. RYLVKTESW returned a Kd in [14] (source organism: West Nile virus) of 0.4 nM. Moreover, the half-inhibitory concentration (IC50) in test [15] came out at 264 nM.
For the sequence WTLETLPRV, the equilibrium dissociation constant (Kd) was 9.4 nM in test [16] (source organism: Salmonella enterica subsp. enterica serovar Typhi); ≥ 20000 nM in test [17] (setting [46]); ≥ 20000 nM in [18]; ≥ 20000 nM in test [19]; 28.7 nM in test [6] (setting [46]); ≤ 1 nM in [20] (setting [47]). Also, the Kd in test [21] was ≥ 20000 nM; in [22] (setting [47]) it was ≤ 1 nM; in test [23] (setting [47]) it was 4 nM; in test [8] (setting [46]), ≥ 20000 nM; in test [24] (setting [47]) it was ≤ 1 nM; in test [25], ≥ 20000 nM. Moreover, the Kd in test [26] (setting [47]) is ≤ 1 nM; in test [11] (setting [46]), ≥ 20000 nM; in test [27], ≥ 20000 nM; in test [28] (setting [46]) it was ≥ 20000 nM.
KTHIHIFSF: in test [14] (source organism: Influenza A virus (A/X-31(H3N2))), the equilibrium dissociation constant (Kd) was found to be 85.5 nM.
In test [29], GMRVLGTNY showed a Kd of 229 nM. This lies in the sub-micromolar range.
As for YRYKMPVME, the dissociation constant (Kd) was 1620 nM in test [30], ≥ 20000 nM in test [31] and 124 nM in [28] (source organism: Giardia lamblia ATCC 50803).
Take RQRHYFDSA: the dissociation constant Kd in test [17] (setting [48]) was ≥ 20000 nM; in test [32] it was ≥ 20000 nM; in [33] it was ≥ 20000 nM; in [6] (setting [48]), 7000 nM; in [34] it was ≥ 20000 nM; in test [7] (setting [48]), ≥ 20000 nM. The Kd in test [20] (setting [48]) is 4 nM; in [22] (setting [48]), ≥ 20000 nM; in test [35], ≥ 20000 nM; in test [23] (setting [48]) it was ≥ 20000 nM; in test [9] (setting [48]), ≥ 20000 nM; in test [36] it was ≥ 20000 nM. Also, the Kd in test [10] (setting [48]), in test [24] (setting [48]), in test [26] (setting [48]), in test [11] (setting [48]) and in test [13] (setting [48]) was ≥ 20000 nM each time.
Take GVYGGLCLA: the Kd in test [37] is 2.5 nM; in test [38] it was ≤ 1 nM; in test [39] it was 122 nM; in test [40], 486 nM; in [41], 423 nM; in [42] it was ≤ 1 nM. In addition, the Kd is 1.6 nM in test [43], ≤ 1 nM in [44] and 0.3 nM in test [16] (source organism: Encephalitozoon cuniculi GB-M1).
